# Reference: publication PMC13376213 (2026)
# T1: MFSD2B (Homo sapiens (Human), UniProt A6NFX1)
# T1 chain: DVVDDFQLQHRHGPG
# T2: CCDC88B (Homo sapiens (Human), UniProt A6NC98)
# T2 chain: QLEEELFQLRQGPAG
# T3: HIF1A (Homo sapiens (Human), UniProt Q16665)
# T3 chain: PYIPMDDDFQLRSFDQLS
# T4: ROBO1 (Homo sapiens (Human), UniProt Q9Y6N7)
# T4 chain: AQSKTQLEVRPV
# T5: CEP192 (Homo sapiens (Human), UniProt Q8TEP8)
# T5 chain: LQPSSKASLESTSDL
# T6: USP19 (Homo sapiens (Human), UniProt O94966)
# T6 chain: PFQPGRMALESQSPG
# T7: IRAG1 (Homo sapiens (Human), UniProt Q9Y6F6)
# T7 chain: TNSSGKMALNSPQPG
# B1: USP33 (protein)
# chain: HLYICHTCQIEAEKIEKRRKTELEIFIRLNRAFQKEDSPATFYCISMQWFREWESFVKGKDGDPPGPIDNTKIAVTKCGNVMLRQGADSGQISEETWNFLQSIYGGGPEVILRPPV
# B2: USP33 (protein)
# chain: RNHCPHLDSVGEITKEDLIQKSLGTCQDCKVQGPNLWACLENRCSYVGCGESQVDHSTIHSQETKHYLTVNLTTLRVWCYACSKEVFLDRKLGTQ
# Tests used:
# Assay in all cases: FP displacement
# MFSD2B = molecular target: T1, MFSD2B
# CCDC88B = molecular target: T2, CCDC88B
# HIF1A = molecular target: T3, HIF1A
# ROBO1 = molecular target: T4, ROBO1
# CEP192 = molecular target: T5, CEP192
# USP19 = molecular target: T6, USP19
# IRAG1 = molecular target: T7, IRAG1
binder,measurement,setting,value
B1,Kd,MFSD2B,0.75 µM
same,Kd,CCDC88B,40.1 µM
same,Kd,HIF1A,1.5 µM
B2,Kd,ROBO1,14 µM
same,Kd,CEP192,14.1 µM
same,Kd,USP19,40.6 µM
same,Kd,IRAG1,7.86 µM
